This assay has as its target IgE-GLT1-NP (IgE leader, lumazine synthase, linker, eOD-GT8; self-assembling 60mer nanoparticle) (Aquifex aeolicus lumazine synthase fused to HIV-1 gp120 fragment). As to the kind of experiment: immunogold TEM of muscle sections from mice immunized with DNA-encoded IgE-GLT1-NP (VRC01 + anti-human 6 nm gold).

This passage reports visible copies of VRC01 binding results from patent publication US20220047695A1.

Where “and” joins values, the source holds several entries; their conditions need not be identical. Identical values can stand only once.

Regarding VRC01 antibody (NIH AIDS Reagent), the visible copies of VRC01 binding is 11 copies and 17 copies.
